{"source": "paper PMC9743467", "about": "(Matter, 2022)", "molecular_target": "Recombinant human ACE2 protein (carrier free) (human, UniProt Q9BYF1)", "sequence (Q9BYF1 18-740)": "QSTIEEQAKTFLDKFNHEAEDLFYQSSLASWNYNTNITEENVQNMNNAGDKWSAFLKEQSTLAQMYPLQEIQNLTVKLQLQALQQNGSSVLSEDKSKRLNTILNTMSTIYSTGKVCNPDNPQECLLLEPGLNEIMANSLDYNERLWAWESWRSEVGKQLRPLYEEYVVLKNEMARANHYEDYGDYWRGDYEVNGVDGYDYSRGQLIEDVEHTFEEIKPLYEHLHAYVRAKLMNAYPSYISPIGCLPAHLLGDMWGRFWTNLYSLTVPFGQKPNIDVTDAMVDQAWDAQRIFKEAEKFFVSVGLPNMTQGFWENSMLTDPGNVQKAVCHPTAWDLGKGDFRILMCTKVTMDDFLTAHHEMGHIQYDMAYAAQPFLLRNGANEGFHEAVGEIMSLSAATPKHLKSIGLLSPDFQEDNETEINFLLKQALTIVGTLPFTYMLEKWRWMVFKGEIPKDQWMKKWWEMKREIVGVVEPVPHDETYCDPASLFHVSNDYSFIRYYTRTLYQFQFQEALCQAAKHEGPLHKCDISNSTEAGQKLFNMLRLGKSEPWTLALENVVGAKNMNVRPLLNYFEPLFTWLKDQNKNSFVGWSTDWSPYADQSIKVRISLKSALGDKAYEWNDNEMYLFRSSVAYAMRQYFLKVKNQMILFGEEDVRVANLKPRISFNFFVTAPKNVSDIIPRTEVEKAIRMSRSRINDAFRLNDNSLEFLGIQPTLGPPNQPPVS", "experiment": "zeta potential"}
{"binder": "VVVGKKGGGDYSHCSPLRYYPWWKCTYPDPEGGG", "note": "[ACE2-binding Ligand peptide amphiphile (C12-VVVGKK-OEG4-GG-DX600)]", "values": [{"measurement": "binding result", "result": "binds"}]}
